In patent US20130011412A1 (Genentech, published 2013):

Columns and labels:
[1] = biological target: T1, recombinant human lymphotoxin-α homotrimer (human LTα3) (human, UniProt P01374 35-205); assay: plate ELISA on coated human LTα
T1 construct: Coated on plates in the ELISAs; also called rhLTα; lymphotoxin-α3 trimer
T1 sequence (looked up): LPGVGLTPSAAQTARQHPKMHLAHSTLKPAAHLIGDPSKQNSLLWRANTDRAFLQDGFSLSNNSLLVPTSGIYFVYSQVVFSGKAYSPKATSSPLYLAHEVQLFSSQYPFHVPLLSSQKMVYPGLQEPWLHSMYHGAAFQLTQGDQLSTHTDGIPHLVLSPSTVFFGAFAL

[2] = biological target: T1, recombinant human lymphotoxin-α …; assay: plate ELISA, IgG
[3] = biological target: T1, recombinant human lymphotoxin-α …; assay: phage competitive ELISA, LTα (0-50 nM) in solution against plate-coated LTα
Procedure: (§1) For the first round, phage were captured for 2 hours against 2 μg/ml plate-coated LTα at ambient temperature. The second and third rounds of selection were performed at ambient temperature by capturing phage for 30 minutes with 2 nM biotinylated LTα in solution phase, followed by capture on neutravidin-coated plates. The highest affinity clone was identified using a competitive ELISA. Constant concentrations of phage clones (normalized by solid-phase LTα binding OD) were incubated with increasing concentrations of LTα (0-50 nM) in solution before capture on a plate coated with 2 μg/ml LTα.

[4] = biological target: T1, recombinant human lymphotoxin-α …; assay: phage competitive ELISA: rhLTα in solution competes with plate-coated LTα
Procedure: as §1

[5] = biological target: T2, human cell-surface LTαβ complex (LTα complexed with LTβ on the cell surface) (human, UniProt P01374 35-205; Q06643 1-244); assay: FACS titration on human Th1 cells, Alexa Fluor 647 conjugates
T2 construct: whole, on cells; also called human LTαβ
T2 sequence (looked up) 1: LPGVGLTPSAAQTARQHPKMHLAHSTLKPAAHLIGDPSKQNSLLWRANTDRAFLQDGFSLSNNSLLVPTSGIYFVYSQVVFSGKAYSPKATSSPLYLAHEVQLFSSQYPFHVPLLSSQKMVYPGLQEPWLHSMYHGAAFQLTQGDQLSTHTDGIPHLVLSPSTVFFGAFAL
T2 sequence (looked up) 2: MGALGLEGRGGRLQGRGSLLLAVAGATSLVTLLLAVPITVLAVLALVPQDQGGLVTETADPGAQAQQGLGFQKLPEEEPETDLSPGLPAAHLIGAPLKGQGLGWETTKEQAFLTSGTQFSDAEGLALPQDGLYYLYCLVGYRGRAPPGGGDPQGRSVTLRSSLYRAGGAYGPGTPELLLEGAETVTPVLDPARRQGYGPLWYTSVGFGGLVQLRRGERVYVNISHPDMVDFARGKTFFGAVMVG
Procedure: (§2) Cells were washed, aspirated, and re-suspended in PBS with 2% FBS. Cells were analyzed on a FACSCALIBUR™ (dual laser) using […]™ software, and results analyzed on a FLOWJO™ analyzer (Treestar).

[6] = biological target: T3, human LTα1β2 heterotrimer (R&D Systems) (human, UniProt P01374 35-205; Q06643 49-244, limits assumed); assay: ELISA on coated LTα1β2
T3 construct: also called LTαβ
T3 sequence (looked up) 1: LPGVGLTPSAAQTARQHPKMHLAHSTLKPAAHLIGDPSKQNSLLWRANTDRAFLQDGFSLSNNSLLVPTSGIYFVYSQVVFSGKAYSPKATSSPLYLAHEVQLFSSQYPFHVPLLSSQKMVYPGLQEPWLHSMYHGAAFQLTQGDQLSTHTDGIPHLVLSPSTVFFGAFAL
T3 sequence (looked up) 2: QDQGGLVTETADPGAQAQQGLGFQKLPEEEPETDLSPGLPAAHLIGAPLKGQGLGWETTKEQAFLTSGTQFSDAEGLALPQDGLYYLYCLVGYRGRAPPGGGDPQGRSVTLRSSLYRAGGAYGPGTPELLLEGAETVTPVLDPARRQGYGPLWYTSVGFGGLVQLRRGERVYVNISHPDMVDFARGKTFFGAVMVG

[7] = biological target: T1, recombinant human lymphotoxin-α …; assay: cell-based or functional assay
[8] = biological target: T2, human cell-surface LTαβ complex (LTα …); assay: FACS titration on human Th2 cells, Alexa Fluor 647 conjugates
Procedure: as §2

[9] = biological target: T1, recombinant human lymphotoxin-α …; assay: plate ELISA on coated LTα
[10] = biological target: T1, recombinant human lymphotoxin-α …; assay: blocking ELISA: biotinylated human LTα3 preincubated with the antibody, then captured on coated TNFRII.huIgG1 (m10)
[11] = biological target: T1, recombinant human lymphotoxin-α …; assay: direct ELISA on plate-coated human LTα3 (1 µg/ml)
[12] = biological target: T1, recombinant human lymphotoxin-α …; assay: plate ELISA on coated LTα; remark: listed apart in the source
[13] = biological target: T4, murine cell-surface LTαβ complex on transfected SVT2 cells (murine, UniProt P09225 34-202; P41155 1-306); assay: FACS on SVT2 cells stably expressing murine LTαβ, reagents conjugated to ALEXA-647
T4 construct: whole, on cells; also called murine LTαβ
T4 sequence (looked up) 1: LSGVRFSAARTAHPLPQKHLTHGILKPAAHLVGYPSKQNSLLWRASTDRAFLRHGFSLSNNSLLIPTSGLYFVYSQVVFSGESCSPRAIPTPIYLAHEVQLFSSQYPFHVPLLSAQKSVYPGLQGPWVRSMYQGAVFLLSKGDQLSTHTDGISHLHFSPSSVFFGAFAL
T4 sequence (looked up) 2: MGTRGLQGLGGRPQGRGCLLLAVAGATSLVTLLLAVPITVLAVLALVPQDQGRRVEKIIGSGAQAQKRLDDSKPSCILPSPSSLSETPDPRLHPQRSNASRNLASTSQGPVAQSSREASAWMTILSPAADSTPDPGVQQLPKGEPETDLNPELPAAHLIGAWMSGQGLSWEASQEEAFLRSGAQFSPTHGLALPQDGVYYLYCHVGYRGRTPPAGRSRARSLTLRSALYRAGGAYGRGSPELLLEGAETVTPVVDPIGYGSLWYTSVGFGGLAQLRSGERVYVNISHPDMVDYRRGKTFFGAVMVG
Procedure: For murine LTαβ, SVT2 cells were transfected with full-length murine LTα and murine LTαβ (murine LTα sequence GenBank Ref NM_{—}010735; murine LTβ sequence GenBank Ref NM_{—}008518) to generate stable murine LTαβ-expressing cell lines. […] Cells were washed, aspirated, and resuspended in PBS with 2% FBS. Cells were analyzed on a FACSCALIBUR™ (dual laser) using […]™ software, and results analyzed on a FLOWJO™ analyzer (Treestar).

[14] = biological target: T1, recombinant human lymphotoxin-α …; assay: BIACORE (rhLTα)

B1: humanized 2C8.v16 (antibody, human IgG1, V domains shown)
VH: EVQLVESGGGLVQPGGSLRLSCAASGYTFTSYVIHWVRQAPGKGLEWVGYNNPYNDGTNYNEKFKGRFTISSDKSKNTAYLQMNSLRAEDTAVYYCSRPTMLPWFAYWGQGTLVTVSS
VL: DIQMTQSPSSLSASVGDRVTITCRASQAVSSAVAWYQQKPGKAPKLLIYSASHRYTGVPSRFSGSGSGTDFTLTISSLQPEDFATYYCQESYSTPWTFGQGTKVEIKR
notes: Heavy chain: v12 variable domain on human IgG1; copies: 2 + 2
ELISA IC50 ratio [1]: 0.6 ratio | fold improvement in binding compared to 2C8.v2 [2]: 2 fold

B2: phage-displayed 2C8 Fab clone A8 (Fab, V domains shown)
VH: EVQLVESGGGLVQPGGSLRLSCAASGYTFTSYVIHWVRQAPGKGLEWVGYNNPYNDGTNYNEKFKGRATISSDKSKNTAYLQMNSLRAEDTAVYYCSRPTMLPWFAYWGQGTLVTVSS
VL: DIQMTQSPSSLSASVGDRVTITCRASQAVSSAVAWYQQKPGKAPKLQIYSASHRYTGVPSRFSGSGSGTDFTLTISSLQPEDFATYYCQESYSTPWTFGQGTKVEIKR
notes: All phagemids kept the wild-type CDR-H3; also called 2C8 clone A8
fold improvement in competition over wild-type 2C8.v2 [3]: 10 fold | IC50 [4]: 0.32 nM

B3: LTbR.huIgG1 (Fc fusion, human, UniProt P36941 31-227, looked up)
receptor-Fc fusion chain: QAVPPYASENQTCRDQEKEYYEPQHRICCSRCPPGTYVSAKCSRIRDTVCATCAENSYNEHWNYLTICQLCRPCDPVMGLEEIAPCTSKRKTQCRCQPGMFCAAWALECTHCELLSDCPPGTEAELKDEVGKGNNHCVPCKAGHFQNTSSPSARCQPHTRCENQGLVEAAPGTAQSDTTCKNPLEPLPPEMSGTMLM
notes: receptor portion of an Fc fusion; also called LTβ-receptor.huIgG1; human LTβR.huIgG1
EC50 (read off the curve) [5]: ~0.05 µg/mL

B4: human TNFRII.huIgG1 (ENBREL®) (Fc fusion, UniProt P20333 23-257, looked up)
chain: LPAQVAFTPYAPEPGSTCRLREYYDQTAQMCCSKCSPGQHAKVFCTKTSDTVCDSCEDSTYTQLWNWVPECLSCGSRCSSDQVETQACTREQNRICTCRPGWYCALSKQEGCRLCAPLRKCRPGFGVARPGTETSDVVCKPCAPGTFSNTTSSTDICRPHQICNVVAIPGNASMDAVCTSTSPTRSMAPGAVHLPQPVSTRSQHTQPTPEPSTAPSTSFLLPMGPSPPAEGSTGD
notes: extracellular domain; also called TNFRII.Fc; etanercept; not shown: Fc portion of a human IgG1
binding result [6]: no binding | IC50, blocking of human LT-induced cytotoxicity [7]: 0.83 nM | binding result [8]: no binding (tested: 100 ug/ml)

B5: chimeric anti-LTα antibody 3F12 (original chimera) (antibody, human IgG1, kappa, V domains shown)
VH: QGQLQQSGAELMKPGASVKISCKATGYTFSSYWIEWVKQRPGHGLEWIGEISPGSGSTNYNEEFKGKATFTADKSSNTAYIQLSSLSTSEDSAVYYCADGYHGYWGQGTTLTVSS
VL: DIVMSQSPSSLAVSVGEKVTMSCKSSQSLLYSTNQKNFLAWYQQKPGQSPKLLIYWASTRDSGVPDRFTGSGSGTDFTLTISSVKAEDLAVYYCQQYYSYPRTFGGGTKLEIKR
notes: Murine variable domains on human C kappa and IgG1; also called 3F12 chimera; chimeric 3F12
Relative binding [9]: 1 relative to the original chimera | IC50 (read off the curve) [10]: ~20 nM | EC50 (read off the curve) [11]: ~0.3 nM

B6: humanized 3F12.v5 (antibody, IgG1, V domains shown)
VH: EVQLVESGGGLVQPGGSLRLSCAASGYTFSSYWIEWVRQAPGKGLEWVGEISPGSGSTNYNEEFKGRATFSADNSKNTAYLQMNSLRAEDTAVYYCADGYHGYWGQGTLVTVSS
VL: DIQMTQSPSSLSASVGDRVTITCKSSQSLLYSTNQKNFLAWYQQKPGKAPKLLIYWASTRDSGVPSRFSGSGSGTDFTLTISSLQPEDFATYYCQQYYSYPRTFGQGTKVEIKR
notes: Human kappa / IgG1 constant domains (vectors of humanized 2G7 version 5); also called version 5
fold weaker binding than the chimera [12]: ~5 fold

B7: LTbR.muIgG2a (Fc fusion, mouse, UniProt P50284 31-223, looked up)
receptor-Fc fusion chain: QLVPPYRIENQTCWDQDKEYYEPMHDVCCSRCPPGEFVFAVCSRSQDTVCKTCPHNSYNEHWNHLSTCQLCRPCDIVLGFEEVAPCTSDRKAECRCQPGMSCVYLDNECVHCEEERLVLCQPGTEAEVTDEIMDTDVNCVPCKPGHFQNTSSPRARCQPHTRCEIQGLVEAAPGTSYSDTICKNPPEPGAMLL
notes: receptor portion of an Fc fusion; also called LTβ-receptor murine IgG2a; muLTβR.IgG2a
binding result [13]: binds

B8: chimeric anti-LTα antibody 2C8 (antibody, human IgG1, kappa, V domains shown)
VH: EVQLQQSGPELVKPGASVKLSCKASGYTFTSYVIHWVKQKPGQGLEWIGYNNPYNDGTNYNEKFKGKATLTSDKSSSTAYMELSSLTSEDSAVYYCSRPTMLPWFAYWGQGTTLTVSA
VL: DIVMTQSHKFMSTSVGDRVSITCKASQAVSSAVAWYQQKPGQSPKLQIYSASHRYTGVPDRFTGSGSGTDFTFTISSVQAEDLAVYYCQQHYSTPWTFGGGTKVEIKR
notes: Murine variable domains on human kappa and human IgG1; also called 2C8 chimera; 2C8.chimera
Kd [14]: 0.6 nM | ELISA IC50 ratio [1]: 1 ratio | IC50 (read off the curve) [10]: ~5 nM | EC50 (read off the curve) [11]: ~0.1 nM
